Biological target: FAR (FXR)-RXRalpha heterodimer (Rattus norvegicus / Homo sapiens, UniProt Q62735;P19793 Q62735:1-469,P19793:1-462)
Assay: cell_activity; 50 uM JH III, CV-1 cells; 17-fold JH III, 76-fold LG69, 212-fold both in p89; parental MTV reporter lacking EcREs not activated
Settings: tags: CMV-driven expression in CV-1 cells
Procedure: Thus, with reference to FIG. 5A, CV-1 cells were transiently transfected with hsp27-EcRE×5 MTV-luciferase alone (−) or with expression vectors for rat FAR and/or human RXRα. Reporter activity was assayed after treating cells with or without 50 μM JH III.

Chain of FAR (FXR)-RXRalpha heterodimer (Q62735 whole entry, chain 1 of 2): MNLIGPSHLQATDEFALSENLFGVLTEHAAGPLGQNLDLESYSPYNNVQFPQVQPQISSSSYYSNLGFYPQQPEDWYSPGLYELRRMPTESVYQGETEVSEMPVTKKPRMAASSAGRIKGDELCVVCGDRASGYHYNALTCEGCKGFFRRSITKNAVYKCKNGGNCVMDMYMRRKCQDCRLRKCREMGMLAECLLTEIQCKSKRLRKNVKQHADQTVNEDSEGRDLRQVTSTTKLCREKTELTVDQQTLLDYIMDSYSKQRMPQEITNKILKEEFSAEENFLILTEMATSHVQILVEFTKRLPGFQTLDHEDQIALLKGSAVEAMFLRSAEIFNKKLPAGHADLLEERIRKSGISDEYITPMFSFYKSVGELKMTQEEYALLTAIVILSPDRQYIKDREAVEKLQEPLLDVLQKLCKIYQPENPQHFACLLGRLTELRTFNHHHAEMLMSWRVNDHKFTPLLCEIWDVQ
Chain of FAR (FXR)-RXRalpha heterodimer (P19793 whole entry, chain 2 of 2): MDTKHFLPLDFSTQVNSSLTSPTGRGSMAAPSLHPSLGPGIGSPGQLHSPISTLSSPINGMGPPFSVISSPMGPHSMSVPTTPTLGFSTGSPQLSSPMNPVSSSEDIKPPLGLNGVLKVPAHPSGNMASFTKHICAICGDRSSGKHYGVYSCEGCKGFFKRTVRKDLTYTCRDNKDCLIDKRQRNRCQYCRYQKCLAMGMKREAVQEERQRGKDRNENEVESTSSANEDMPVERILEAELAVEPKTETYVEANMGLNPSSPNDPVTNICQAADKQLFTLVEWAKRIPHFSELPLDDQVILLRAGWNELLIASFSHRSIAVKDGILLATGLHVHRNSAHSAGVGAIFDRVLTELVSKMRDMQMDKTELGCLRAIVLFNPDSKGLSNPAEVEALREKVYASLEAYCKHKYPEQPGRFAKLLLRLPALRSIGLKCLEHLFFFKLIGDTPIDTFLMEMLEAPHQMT

B1: hsp27-EcREx5 MTV-luciferase reporter (dsDNA)
DNA 1: GGTTCAATGCACT
DNA 2: AGTGCATTGAACC
activity: 10 fold

— patent US6416957, “Method for modulating process mediated by farnesoid activated receptors” (The Salk Institute for Biological Studies)
